The values that follow come from patent US20210009657A1 (THEACHON, published 2021).

Test [1] deals with T1, Aggrecan (R&D systems #1220-PG-025) (UniProt P16112 20-675).
T1 construct: Coated on the ELISA plate at 10 ug/mL
Kind of test: ELISA, aggrecan coated on plate, detection with anti-FGFR3 antibody. The protocol: ELISA plate were coated with 10 μg/mL of Aggrecan (R&D systems #1220-PG-025) in a final volume of 50μI per well and incubated overnight at room temperature. Plate were blocked with 300μI of PBS 1% BSA per well during 1 h at room temperature. Different amount of protein (0 to 100 µl ) were incubated for 1 h at room temperature. Specific detection antibody against FGFR3 from an R&D system ELISA kit (#DYC766E) was used to detect recombinant protein fixed to aggrecan as recommended by the manufacturer.

Test [2] addresses T2, human FGF2 (human, UniProt P09038 143-288).
T2 construct: also called hFGF2; Fibroblast Growth Factor 2
Kind of test: fixed FGF2 incubated with increasing decoy, unbound FGF2 by ELISA. As for the experimental part:
Fixed amounts of human FGF2, or human FGF9 (R&D Systems) were incubated for 2 h at 37° C. with increasing doses of each recombinant protein (0 to 250 ng/ml) in PBS 1% BSA. Specific commercial ELISA kits (R&D Systems; Clinisciences) were used to quantify remaining unbound FGFs. 1000 pg/ml or 1200 pg/ml were used for FGF2 and FGF9 respectively based on the sensitivity of the corresponding ELISA kits.

T1 sequence (P16112 20-675 limits assumed): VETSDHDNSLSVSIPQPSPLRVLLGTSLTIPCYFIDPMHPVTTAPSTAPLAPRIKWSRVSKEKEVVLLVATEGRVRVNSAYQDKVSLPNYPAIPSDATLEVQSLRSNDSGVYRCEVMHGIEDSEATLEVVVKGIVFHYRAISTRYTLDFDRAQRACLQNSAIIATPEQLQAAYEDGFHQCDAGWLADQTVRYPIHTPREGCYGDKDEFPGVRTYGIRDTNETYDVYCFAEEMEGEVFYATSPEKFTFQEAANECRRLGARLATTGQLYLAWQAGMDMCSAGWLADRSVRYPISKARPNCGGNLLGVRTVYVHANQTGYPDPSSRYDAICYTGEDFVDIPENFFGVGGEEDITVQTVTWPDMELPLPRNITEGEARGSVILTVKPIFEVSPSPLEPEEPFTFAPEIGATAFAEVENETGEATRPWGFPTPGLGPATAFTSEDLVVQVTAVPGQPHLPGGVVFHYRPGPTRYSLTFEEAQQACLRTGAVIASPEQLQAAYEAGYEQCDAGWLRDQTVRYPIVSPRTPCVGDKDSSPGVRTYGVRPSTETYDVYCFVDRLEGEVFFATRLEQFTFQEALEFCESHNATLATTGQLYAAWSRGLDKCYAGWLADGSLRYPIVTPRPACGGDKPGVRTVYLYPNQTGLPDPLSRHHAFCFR
T2 sequence (P09038 143-288 limits assumed): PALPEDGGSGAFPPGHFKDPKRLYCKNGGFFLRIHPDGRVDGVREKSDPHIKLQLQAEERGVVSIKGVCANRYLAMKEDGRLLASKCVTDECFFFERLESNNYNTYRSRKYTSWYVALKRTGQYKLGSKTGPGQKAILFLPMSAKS

B1: FLAG-sFGFR3_Del4 (receptor)
chain: DYKDDDDKMGAPACALALCVAVAIVAGASSESLGTEQRVVGRAAEVPGPEPGQQEQLVFGSGDAVELSCPPPGGGPMGPTVWVKDGTGLVPSERVLVGPQRLQVLNASHEDSGAYSCRQRLTQRVLCHFSVRVTDAPSSGDDEDGEDEAEDTGVDTGAPYWTRPERMDKKLLAVPAANTVRFRCPAAGNPTPSISWLKNGREFRGEHRIGGIKLRHQQWSLVMESVVPSDRGNYTCVVENKFGSIRQTYTLDVLERSPHRPILQAGLPANQTAVLGSDVEFHCKVYSDAQPHIQWLKHVEVNGSKVGPDGTPYVTVLKVSLESNASMSSNT
notes: Obtained by site directed mutagenesis of sFGFR3-pFLAG-CMV3 and made in HEK 293 cells; also called Del4 variant
For the molecule B1, the binding result in test [1] is reported as “no binding”.

B2: FLAG-sFGFR3_Del4-LK1-LK2 (other)
chain: DYKDDDDKLVDQIPAMGAPACALALCVAVAIVAGASSESLGTEQRVVGRAAEVPGPEPGQQEQLVFGSGDAVELSCPPPGGGPMGPTVWVKDGTGLVPSERVLVGPQRLQVLNASHEDSGAYSCRQRLTQRVLCHFSVRVTDAPSSGDDEDGEDEAEDTGVDTGAPYWTRPERMDKKLLAVPAANTVRFRCPAAGNPTPSISWLKNGREFRGEHRIGGIKLRHQQWSLVMESVVPSDRGNYTCVVENKFGSIRQTYTLDVLERSPHRPILQAGLPANQTAVLGSDVEFHCKVYSDAQPHIQWLKHVEVNGSKVGPDGTPYVTVLKVSLESNASMSSNTSGSGSGSGSGSGSGSVVFPYFPRLGRYNLNFHEAQQACLDQDAVIASFDQLYDAWRGGLDWCNAGWLSDGSVQYPITKPREPCGGQNTVPGVRNYGFWDKDKSRYDVFCFTSNFNGRFYYLIHPTKLTYDEAVQACLNDGAQIAKVGQIFAAWKILGYDRCDAGWLADGSVRYPISRPRRRCSPTEAAVRFVGFPDKKHKLYGVYCFRAYN
notes: Fusion of a soluble FGFR3 fragment with the LK1 and LK2 link domains of human HPLN1; Made in HEK 293 cells; also called FP; fusion protein
B2: the binding result in test [2] is “binds”.
